Assay results as given in paper PMC12374970, “NSUN2 facilitates DICER cleavage of DNA damage-associated R-loops to promote repair” (Nature Communications, 2025).

Molecular target: T1, 6xHis-DICER (recombinant wild-type DICER) (human, UniProt Q9UPY3 1-1922)
T1 construct: DICER (endoribonuclease Dicer), human; expressed from pFastBac1-hDICER; See Addgene 89144 and the plasmid list in Supplementary Data 1; also called hDICER; recombinant DICER; source: Sf9 (baculovirus, pFastBac1-hDICER), purified (Ni-NTA)
T1 sequence (Q9UPY3 whole entry): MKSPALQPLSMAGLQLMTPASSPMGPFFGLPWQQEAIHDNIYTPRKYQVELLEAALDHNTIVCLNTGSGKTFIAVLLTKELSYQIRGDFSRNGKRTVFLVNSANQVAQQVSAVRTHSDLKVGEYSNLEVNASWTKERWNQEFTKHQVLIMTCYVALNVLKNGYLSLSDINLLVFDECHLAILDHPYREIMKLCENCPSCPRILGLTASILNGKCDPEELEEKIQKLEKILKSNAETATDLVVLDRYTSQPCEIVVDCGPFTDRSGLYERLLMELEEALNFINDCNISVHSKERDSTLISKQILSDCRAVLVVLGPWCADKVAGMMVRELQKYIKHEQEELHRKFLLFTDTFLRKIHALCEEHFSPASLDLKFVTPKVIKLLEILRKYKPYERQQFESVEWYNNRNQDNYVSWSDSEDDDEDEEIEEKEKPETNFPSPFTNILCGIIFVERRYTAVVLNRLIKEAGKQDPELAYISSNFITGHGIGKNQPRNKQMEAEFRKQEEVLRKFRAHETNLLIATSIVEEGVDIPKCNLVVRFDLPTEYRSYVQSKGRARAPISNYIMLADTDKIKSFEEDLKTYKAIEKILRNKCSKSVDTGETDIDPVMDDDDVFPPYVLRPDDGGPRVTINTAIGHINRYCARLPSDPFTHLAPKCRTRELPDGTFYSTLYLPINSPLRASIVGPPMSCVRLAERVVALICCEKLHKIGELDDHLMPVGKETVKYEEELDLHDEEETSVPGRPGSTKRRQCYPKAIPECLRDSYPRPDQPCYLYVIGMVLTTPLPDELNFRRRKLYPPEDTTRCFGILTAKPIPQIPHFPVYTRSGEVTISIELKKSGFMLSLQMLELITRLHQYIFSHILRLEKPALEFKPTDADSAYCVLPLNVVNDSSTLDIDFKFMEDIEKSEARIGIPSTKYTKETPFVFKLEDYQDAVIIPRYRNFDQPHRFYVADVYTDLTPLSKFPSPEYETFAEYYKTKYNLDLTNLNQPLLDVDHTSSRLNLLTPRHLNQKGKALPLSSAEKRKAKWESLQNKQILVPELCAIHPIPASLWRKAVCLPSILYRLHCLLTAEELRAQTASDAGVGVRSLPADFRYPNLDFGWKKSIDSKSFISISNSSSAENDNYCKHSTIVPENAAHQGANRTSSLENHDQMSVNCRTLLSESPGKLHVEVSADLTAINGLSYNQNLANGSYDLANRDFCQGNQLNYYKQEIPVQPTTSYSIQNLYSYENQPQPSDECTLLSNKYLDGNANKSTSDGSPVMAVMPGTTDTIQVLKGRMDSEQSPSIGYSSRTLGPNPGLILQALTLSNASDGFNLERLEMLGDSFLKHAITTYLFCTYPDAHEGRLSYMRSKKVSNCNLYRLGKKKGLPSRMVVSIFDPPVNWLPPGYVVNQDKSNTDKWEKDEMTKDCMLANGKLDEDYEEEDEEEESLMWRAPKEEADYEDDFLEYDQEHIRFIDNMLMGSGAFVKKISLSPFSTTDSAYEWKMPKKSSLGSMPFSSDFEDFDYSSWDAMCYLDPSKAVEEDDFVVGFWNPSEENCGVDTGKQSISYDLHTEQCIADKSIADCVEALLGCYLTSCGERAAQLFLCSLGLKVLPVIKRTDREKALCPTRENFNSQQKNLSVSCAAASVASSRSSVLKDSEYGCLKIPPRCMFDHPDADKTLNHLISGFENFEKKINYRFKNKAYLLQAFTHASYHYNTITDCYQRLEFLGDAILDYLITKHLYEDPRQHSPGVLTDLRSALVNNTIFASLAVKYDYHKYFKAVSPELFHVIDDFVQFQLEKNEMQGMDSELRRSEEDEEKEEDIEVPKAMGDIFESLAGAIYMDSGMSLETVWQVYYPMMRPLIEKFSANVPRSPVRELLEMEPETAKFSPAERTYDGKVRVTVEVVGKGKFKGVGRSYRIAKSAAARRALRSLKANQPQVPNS
Experiment: SPR; Biacore S200; 6xHis-NSUN2 (0.2 μg/mL) immobilised on CM5 chip at pH 4.0 by amine coupling; 2-fold serial dilutions of 6xHis-DICER (0.00117–0.6 µM) in 50 mM TrisHCl (pH 8), 50 mM NaCl, 5 mM MgCl2, 2 mM TCEP, 0.05% Tween20; equilibrium (steady-state) fit
Conditions: both partners purified

B1: 6xHis-NSUN2 (recombinant wild-type NSUN2) (enzyme, human, UniProt Q08J23 1-767, looked up)
chain: MGRRSRGRRLQQQQRPEDAEDGAEGGGKRGEAGWEGGYPEIVKENKLFEHYYQELKIVPEGEWGQFMDALREPLPATLRITGYKSHAKEILHCLKNKYFKELEDLEVDGQKVEVPQPLSWYPEELAWHTNLSRKILRKSPHLEKFHQFLVSETESGNISRQEAVSMIPPLLLNVRPHHKILDMCAAPGSKTTQLIEMLHADMNVPFPEGFVIANDVDNKRCYLLVHQAKRLSSPCIMVVNHDASSIPRLQIDVDGRKEILFYDRILCDVPCSGDGTMRKNIDVWKKWTTLNSLQLHGLQLRIATRGAEQLAEGGRMVYSTCSLNPIEDEAVIASLLEKSEGALELADVSNELPGLKWMPGITQWKVMTKDGQWFTDWDAVPHSRHTQIRPTMFPPKDPEKLQAMHLERCLRILPHHQNTGGFFVAVLVKKSSMPWNKRQPKLQGKSAETRESTQLSPADLTEGKPTDPSKLESPSFTGTGDTEIAHATEDLENNGSKKDGVCGPPPSKKMKLFGFKEDPFVFIPEDDPLFPPIEKFYALDPSFPRMNLLTRTTEGKKRQLYMVSKELRNVLLNNSEKMKVINTGIKVWCRNNSGEEFDCAFRLAQEGIYTLYPFINSRIITVSMEDVKILLTQENPFFRKLSSETYSQAKDLAKGSIVLKYEPDSANPDALQCPIVLCGWRGKASIRTFVPKNERLHYLRMMGLEVLGEKKKEGVILTNESAASTGQPDNDVTEGQRAGEPNSPDAEEANSPDVTAGCDPAGVHPPR
notes: RNA m5C-methyltransferase NSUN2, human; The plasmid list is in Supplementary Data 1; also called NSUN2 wt; recombinant NSUN2; source: Sf9 (baculovirus, pFastBac1-NSUN2), purified (Ni-NTA)
In the case of B1, the Kd is reported as roughly 0.5 µM.
